Patent US20070196883A1 (UNIVERSITY OF DUNDEE, published 2007)
Ends that are not written are not given here. * marks the point of attachment. Biotin = O=C1N[C@H]2[C@H](CS[C@H]2CCCCC(=O)*)N1

Columns and labels:
[1] = target: T1, His-PDK1 (Myc-PDK1 with an N-terminal hexahistidine sequence, from Sf21 insect cells) (human, UniProt O15530 1-556); assay: SPR, His-PDK1 over the biotinylated peptide on Sensor Chip SA, steady state
T1 construct: Purified by Ni-NTA agarose, >90% homogeneous; also called His-tagged PDK1
T1 sequence: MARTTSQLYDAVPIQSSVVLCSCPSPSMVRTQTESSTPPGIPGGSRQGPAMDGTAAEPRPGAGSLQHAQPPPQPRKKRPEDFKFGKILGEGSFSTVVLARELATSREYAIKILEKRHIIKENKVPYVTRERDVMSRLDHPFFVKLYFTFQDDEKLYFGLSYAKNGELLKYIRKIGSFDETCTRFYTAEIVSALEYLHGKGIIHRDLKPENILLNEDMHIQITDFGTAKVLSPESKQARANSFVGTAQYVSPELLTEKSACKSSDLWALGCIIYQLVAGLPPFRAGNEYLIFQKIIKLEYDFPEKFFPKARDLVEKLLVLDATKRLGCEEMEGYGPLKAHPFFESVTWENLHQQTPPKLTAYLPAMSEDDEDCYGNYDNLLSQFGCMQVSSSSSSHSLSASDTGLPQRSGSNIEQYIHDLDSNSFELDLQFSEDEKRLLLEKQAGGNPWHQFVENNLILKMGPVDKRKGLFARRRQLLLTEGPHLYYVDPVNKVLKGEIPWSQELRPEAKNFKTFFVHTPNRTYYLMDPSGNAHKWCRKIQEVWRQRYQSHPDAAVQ

[2] = target: T1, His-PDK1 (Myc-PDK1 with an N-terminal …); assay: SPR competition: 0.5 µM His-PDK1 mixed with 0-3 µM free Region B peptide, injected over the immobilised peptide
[3] = target: T1, His-PDK1 (Myc-PDK1 with an N-terminal …); assay: SPR competition with the immobilised Region B peptide
[4] = target: T2, GST-MSK1 (UniProt O75582 1-802); assay: GST pull-down from 293 cells, PDK1 immunoblot and activity
T2 construct: not shown: glutathione S-transferase (GST) tag
T2 sequence (O75582 whole entry): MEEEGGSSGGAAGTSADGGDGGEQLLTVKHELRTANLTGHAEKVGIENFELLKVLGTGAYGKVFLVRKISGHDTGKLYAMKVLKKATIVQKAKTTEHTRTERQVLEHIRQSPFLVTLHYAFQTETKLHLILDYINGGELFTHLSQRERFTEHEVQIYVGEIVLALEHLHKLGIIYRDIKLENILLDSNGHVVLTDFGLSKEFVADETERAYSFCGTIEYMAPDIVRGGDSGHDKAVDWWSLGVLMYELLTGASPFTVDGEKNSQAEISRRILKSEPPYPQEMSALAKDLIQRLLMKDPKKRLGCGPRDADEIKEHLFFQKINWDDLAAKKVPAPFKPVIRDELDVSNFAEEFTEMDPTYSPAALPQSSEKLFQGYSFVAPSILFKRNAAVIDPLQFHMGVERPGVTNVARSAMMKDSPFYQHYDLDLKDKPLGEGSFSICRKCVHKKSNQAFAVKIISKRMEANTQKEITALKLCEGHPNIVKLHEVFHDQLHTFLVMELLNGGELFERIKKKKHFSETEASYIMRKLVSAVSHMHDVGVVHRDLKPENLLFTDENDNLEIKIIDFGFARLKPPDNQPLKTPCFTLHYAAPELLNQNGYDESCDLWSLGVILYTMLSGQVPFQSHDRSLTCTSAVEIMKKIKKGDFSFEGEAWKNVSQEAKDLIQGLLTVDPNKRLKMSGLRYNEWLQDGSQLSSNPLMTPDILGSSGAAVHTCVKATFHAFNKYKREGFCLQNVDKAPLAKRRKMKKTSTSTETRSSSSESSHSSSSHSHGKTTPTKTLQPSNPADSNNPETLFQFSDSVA

B1: immobilised and biotinylated 24 residue synthetic peptide corresponding to the Region B peptide (peptide)
peptide: REPRILSEEEQEMFRDFDYIADWC(Biotin)
notes: also called Region B peptide, biotinylated
[1]
  Kd: 800 nM

B2: Region B peptide (24 residue synthetic peptide corresponding to Region B of PIF) (peptide)
peptide: REPRILSEEEQEMFRDFDYIADWC
notes: also called free peptide; wild type peptide
[2]
  Kd: 1500 nM

B3: D978A-Region B peptide (peptide)
peptide: REPRILSEEEQEMFRDFAYIADWC
notes: Range 961-984 is worked out from 'C-terminal 24 amino acids'
[3]
  fold less strongly than the Region B peptide: 10 fold

B4: endogenous PDK1 of 293 cells (enzyme, UniProt O15530 1-556, looked up)
chain: MARTTSQLYDAVPIQSSVVLCSCPSPSMVRTQTESSTPPGIPGGSRQGPAMDGTAAEPRPGAGSLQHAQPPPQPRKKRPEDFKFGKILGEGSFSTVVLARELATSREYAIKILEKRHIIKENKVPYVTRERDVMSRLDHPFFVKLYFTFQDDEKLYFGLSYAKNGELLKYIRKIGSFDETCTRFYTAEIVSALEYLHGKGIIHRDLKPENILLNEDMHIQITDFGTAKVLSPESKQARANSFVGTAQYVSPELLTEKSACKSSDLWALGCIIYQLVAGLPPFRAGNEYLIFQKIIKLEYDFPEKFFPKARDLVEKLLVLDATKRLGCEEMEGYGPLKAHPFFESVTWENLHQQTPPKLTAYLPAMSEDDEDCYGNYDNLLSQFGCMQVSSSSSSHSLSASDTGLPQRSGSNIEQYIHDLDSNSFELDLQFSEDEKRLLLEKQAGGNPWHQFVENNLILKMGPVDKRKGLFARRRQLLLTEGPHLYYVDPVNKVLKGEIPWSQELRPEAKNFKTFFVHTPNRTYYLMDPSGNAHKWCRKIQEVWRQRYQSHPDAAVQ
notes: Two bands (63 and 66 kDa) both co-purified with GST-PIF; also called PDK1 immunoreactive bands at 63 kDa and 66 kDa
[4]
  binding result: no binding
